Target: T1, IL-1beta (UniProt P01584 117-269)
T1 construct: also called IL-1β
Assay: Biacore

| Binder | fold difference in affinity vs parental [fold] | binding result |
| --- | --- | --- |
| XPA23 Fab, heavy chain V50N (Fab, V domains shown) VH: EVQLLESGGGLVQPGGSLRLSCAASGFTFSKYFMFWVRQAPGKGLEWVSNISPSGGMTRYADSVKGRFTISRDNSKNTLYLQMNSLRAEDTAVYYCARVGYGGNSDYWGQGTLVTVSS VL: DIQMTQSPSSVSASVGDRLTIICRASQDINRWLAWYQQTPGNAPKLLIHSATSLQSGVPSRFSGSGSGTDFTLTINSLQPEDFATYYCQQADSFPLTFGGGTKVEIK | 0.03 |  |
| XPA23 Fab, heavy chain D106E (Fab, V domains shown) VH: EVQLLESGGGLVQPGGSLRLSCAASGFTFSKYFMFWVRQAPGKGLEWVSVISPSGGMTRYADSVKGRFTISRDNSKNTLYLQMNSLRAEDTAVYYCARVGYGGNSEYWGQGTLVTVSS VL: DIQMTQSPSSVSASVGDRLTIICRASQDINRWLAWYQQTPGNAPKLLIHSATSLQSGVPSRFSGSGSGTDFTLTINSLQPEDFATYYCQQADSFPLTFGGGTKVEIK | 0.04 |  |
| XPA23 Fab, heavy chain D106F (Fab, V domains shown) VH: EVQLLESGGGLVQPGGSLRLSCAASGFTFSKYFMFWVRQAPGKGLEWVSVISPSGGMTRYADSVKGRFTISRDNSKNTLYLQMNSLRAEDTAVYYCARVGYGGNSFYWGQGTLVTVSS VL: DIQMTQSPSSVSASVGDRLTIICRASQDINRWLAWYQQTPGNAPKLLIHSATSLQSGVPSRFSGSGSGTDFTLTINSLQPEDFATYYCQQADSFPLTFGGGTKVEIK |  | no binding |
| XPA23 Fab, heavy chain D106H (Fab, V domains shown) VH: EVQLLESGGGLVQPGGSLRLSCAASGFTFSKYFMFWVRQAPGKGLEWVSVISPSGGMTRYADSVKGRFTISRDNSKNTLYLQMNSLRAEDTAVYYCARVGYGGNSHYWGQGTLVTVSS VL: DIQMTQSPSSVSASVGDRLTIICRASQDINRWLAWYQQTPGNAPKLLIHSATSLQSGVPSRFSGSGSGTDFTLTINSLQPEDFATYYCQQADSFPLTFGGGTKVEIK | 0.02 |  |
| XPA23 Fab, heavy chain D106K (Fab, V domains shown) VH: EVQLLESGGGLVQPGGSLRLSCAASGFTFSKYFMFWVRQAPGKGLEWVSVISPSGGMTRYADSVKGRFTISRDNSKNTLYLQMNSLRAEDTAVYYCARVGYGGNSKYWGQGTLVTVSS VL: DIQMTQSPSSVSASVGDRLTIICRASQDINRWLAWYQQTPGNAPKLLIHSATSLQSGVPSRFSGSGSGTDFTLTINSLQPEDFATYYCQQADSFPLTFGGGTKVEIK | 0.04 |  |
| XPA23 Fab, heavy chain D106N (Fab, V domains shown) VH: EVQLLESGGGLVQPGGSLRLSCAASGFTFSKYFMFWVRQAPGKGLEWVSVISPSGGMTRYADSVKGRFTISRDNSKNTLYLQMNSLRAEDTAVYYCARVGYGGNSNYWGQGTLVTVSS VL: DIQMTQSPSSVSASVGDRLTIICRASQDINRWLAWYQQTPGNAPKLLIHSATSLQSGVPSRFSGSGSGTDFTLTINSLQPEDFATYYCQQADSFPLTFGGGTKVEIK | 0.07 |  |
| XPA23 Fab, heavy chain D106Q (Fab, V domains shown) VH: EVQLLESGGGLVQPGGSLRLSCAASGFTFSKYFMFWVRQAPGKGLEWVSVISPSGGMTRYADSVKGRFTISRDNSKNTLYLQMNSLRAEDTAVYYCARVGYGGNSQYWGQGTLVTVSS VL: DIQMTQSPSSVSASVGDRLTIICRASQDINRWLAWYQQTPGNAPKLLIHSATSLQSGVPSRFSGSGSGTDFTLTINSLQPEDFATYYCQQADSFPLTFGGGTKVEIK | 0.02 |  |
| XPA23 Fab, heavy chain D106R (Fab, V domains shown) VH: EVQLLESGGGLVQPGGSLRLSCAASGFTFSKYFMFWVRQAPGKGLEWVSVISPSGGMTRYADSVKGRFTISRDNSKNTLYLQMNSLRAEDTAVYYCARVGYGGNSRYWGQGTLVTVSS VL: DIQMTQSPSSVSASVGDRLTIICRASQDINRWLAWYQQTPGNAPKLLIHSATSLQSGVPSRFSGSGSGTDFTLTINSLQPEDFATYYCQQADSFPLTFGGGTKVEIK | 0.06 |  |
| XPA23 Fab, heavy chain D106S (Fab, V domains shown) VH: EVQLLESGGGLVQPGGSLRLSCAASGFTFSKYFMFWVRQAPGKGLEWVSVISPSGGMTRYADSVKGRFTISRDNSKNTLYLQMNSLRAEDTAVYYCARVGYGGNSSYWGQGTLVTVSS VL: DIQMTQSPSSVSASVGDRLTIICRASQDINRWLAWYQQTPGNAPKLLIHSATSLQSGVPSRFSGSGSGTDFTLTINSLQPEDFATYYCQQADSFPLTFGGGTKVEIK | 0.03 |  |
| XPA23 Fab, heavy chain D106W (Fab, V domains shown) VH: EVQLLESGGGLVQPGGSLRLSCAASGFTFSKYFMFWVRQAPGKGLEWVSVISPSGGMTRYADSVKGRFTISRDNSKNTLYLQMNSLRAEDTAVYYCARVGYGGNSWYWGQGTLVTVSS VL: DIQMTQSPSSVSASVGDRLTIICRASQDINRWLAWYQQTPGNAPKLLIHSATSLQSGVPSRFSGSGSGTDFTLTINSLQPEDFATYYCQQADSFPLTFGGGTKVEIK |  | no binding |
| XPA23 Fab, heavy chain D106Y (Fab, V domains shown) VH: EVQLLESGGGLVQPGGSLRLSCAASGFTFSKYFMFWVRQAPGKGLEWVSVISPSGGMTRYADSVKGRFTISRDNSKNTLYLQMNSLRAEDTAVYYCARVGYGGNSYYWGQGTLVTVSS VL: DIQMTQSPSSVSASVGDRLTIICRASQDINRWLAWYQQTPGNAPKLLIHSATSLQSGVPSRFSGSGSGTDFTLTINSLQPEDFATYYCQQADSFPLTFGGGTKVEIK |  | no binding |
| XPA23 Fab, heavy chain F33D (Fab, V domains shown) VH: EVQLLESGGGLVQPGGSLRLSCAASGFTFSKYDMFWVRQAPGKGLEWVSVISPSGGMTRYADSVKGRFTISRDNSKNTLYLQMNSLRAEDTAVYYCARVGYGGNSDYWGQGTLVTVSS VL: DIQMTQSPSSVSASVGDRLTIICRASQDINRWLAWYQQTPGNAPKLLIHSATSLQSGVPSRFSGSGSGTDFTLTINSLQPEDFATYYCQQADSFPLTFGGGTKVEIK | 0.92 |  |
| XPA23 Fab, heavy chain F33E (Fab, V domains shown) VH: EVQLLESGGGLVQPGGSLRLSCAASGFTFSKYEMFWVRQAPGKGLEWVSVISPSGGMTRYADSVKGRFTISRDNSKNTLYLQMNSLRAEDTAVYYCARVGYGGNSDYWGQGTLVTVSS VL: DIQMTQSPSSVSASVGDRLTIICRASQDINRWLAWYQQTPGNAPKLLIHSATSLQSGVPSRFSGSGSGTDFTLTINSLQPEDFATYYCQQADSFPLTFGGGTKVEIK | 0.86 |  |
| XPA23 Fab, heavy chain F33H (Fab, V domains shown) VH: EVQLLESGGGLVQPGGSLRLSCAASGFTFSKYHMFWVRQAPGKGLEWVSVISPSGGMTRYADSVKGRFTISRDNSKNTLYLQMNSLRAEDTAVYYCARVGYGGNSDYWGQGTLVTVSS VL: DIQMTQSPSSVSASVGDRLTIICRASQDINRWLAWYQQTPGNAPKLLIHSATSLQSGVPSRFSGSGSGTDFTLTINSLQPEDFATYYCQQADSFPLTFGGGTKVEIK |  | no binding |
| XPA23 Fab, heavy chain F33K (Fab, V domains shown) VH: EVQLLESGGGLVQPGGSLRLSCAASGFTFSKYKMFWVRQAPGKGLEWVSVISPSGGMTRYADSVKGRFTISRDNSKNTLYLQMNSLRAEDTAVYYCARVGYGGNSDYWGQGTLVTVSS VL: DIQMTQSPSSVSASVGDRLTIICRASQDINRWLAWYQQTPGNAPKLLIHSATSLQSGVPSRFSGSGSGTDFTLTINSLQPEDFATYYCQQADSFPLTFGGGTKVEIK | 0.85 |  |

Source: patent US20110118131A1 (published 2011)
